Residue numbers refer to the chain shown, from its start.
T1: human α11 expressed on CHO-K1 cells (human, UniProt Q9UKX5 23-1188)
T1 sequence (Q9UKX5 whole entry, looked up): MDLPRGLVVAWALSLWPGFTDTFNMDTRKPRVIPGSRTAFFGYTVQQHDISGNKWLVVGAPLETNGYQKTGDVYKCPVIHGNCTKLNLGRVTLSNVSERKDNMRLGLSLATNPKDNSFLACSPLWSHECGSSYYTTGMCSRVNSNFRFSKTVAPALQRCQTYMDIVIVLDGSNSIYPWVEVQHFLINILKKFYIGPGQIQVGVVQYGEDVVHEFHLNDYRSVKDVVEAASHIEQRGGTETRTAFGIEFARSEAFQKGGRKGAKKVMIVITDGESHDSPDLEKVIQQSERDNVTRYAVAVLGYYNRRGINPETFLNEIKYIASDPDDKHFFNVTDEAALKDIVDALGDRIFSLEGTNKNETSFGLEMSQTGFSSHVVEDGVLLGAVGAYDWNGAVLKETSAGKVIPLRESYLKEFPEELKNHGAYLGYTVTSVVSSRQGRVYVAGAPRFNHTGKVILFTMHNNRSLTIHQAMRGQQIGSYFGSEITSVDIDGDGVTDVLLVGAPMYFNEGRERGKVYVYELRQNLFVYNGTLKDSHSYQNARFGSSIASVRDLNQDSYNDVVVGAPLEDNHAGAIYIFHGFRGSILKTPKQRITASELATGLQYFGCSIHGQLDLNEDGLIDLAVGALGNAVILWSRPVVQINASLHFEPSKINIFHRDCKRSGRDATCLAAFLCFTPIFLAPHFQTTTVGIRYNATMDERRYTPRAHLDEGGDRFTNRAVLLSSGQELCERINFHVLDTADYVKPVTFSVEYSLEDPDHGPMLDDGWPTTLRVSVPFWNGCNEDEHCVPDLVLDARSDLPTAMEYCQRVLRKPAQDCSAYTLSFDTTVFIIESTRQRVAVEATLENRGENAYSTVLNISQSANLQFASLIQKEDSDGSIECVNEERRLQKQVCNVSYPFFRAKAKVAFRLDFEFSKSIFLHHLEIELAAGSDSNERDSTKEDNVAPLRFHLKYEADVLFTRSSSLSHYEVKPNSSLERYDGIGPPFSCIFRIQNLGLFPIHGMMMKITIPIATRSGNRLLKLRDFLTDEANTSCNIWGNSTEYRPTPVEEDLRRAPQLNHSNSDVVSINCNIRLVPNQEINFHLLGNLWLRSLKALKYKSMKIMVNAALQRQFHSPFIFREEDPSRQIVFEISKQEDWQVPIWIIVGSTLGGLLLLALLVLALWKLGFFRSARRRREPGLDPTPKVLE

B1: 1994-01-C7 variant 54 (antibody, V domains shown)
VH: QVQLVQSGAEVKKPGASVKVSCKASGYTFTSYGISWVRQAPGQGLEWMGWISAYNANTNYAQKLQGRVTMTTDTSTSTAYMELRSLRSDDTAAYYCARVTGITGTTIGPWGQGTMVTVSS
VL: DIQMTQSPSSLSASVGDRVTITCRASQSISSYLNWYQQKPGKAPKLLIYDASSLESGVPSRFSGSGSGTEFTLTISSLQPDDFAVYYCQQYNNWPQTFGQGTKVEIK
B2: 1994-01-C7 (antibody, V domains shown)
VH: B1 VH with A56G, G108D
VL: B1 VL
notes: Fully human, from phage display (scFv converted to IgG); also called 1994-01-C7 (#9); 1994-01-C07
B3: 1994-01-C7 variant 60 (antibody, V domains shown)
VH: B1 VH with A56S
VL: B1 VL
B4: 1994-01-C7 variant 58 (antibody, V domains shown)
VH: B1 VH with T58V
VL: B1 VL
B5: 79E3E3 (antibody, V domains shown)
VH: QIQLVQSGPEVKKPGESVKISCKASGYTFTDYAMNWVKQAPGNGLKWMGWINTQTGKPTYADDFKQRFVFSLETSARTTYLQINNLNIEDTATYFCTRLGTGNTKGFAYWGQGTLVTVSS
VL: DILINQSPASLTVSAGERVTMSCKSSQSLLYSENNQDYLAWYQQKPGQFPKLLIYGASNRHTGVPDRFTGSGSGTDFTLTISSVQAEDLADYYCEQTYRYPFTFGSGTKLEIK
notes: Rat hybridoma antibody; also called Wild Type
B6: 16E10 (antibody, V domains shown)
VH: QSLEESGGDLVKPGASLTLTCRVSGFSFSSSYYMCWVRQAPGKGLEWIACIGTTRGSTYYATWAKGRFTISKISSTTVTLQMTSLTDADTATYFCARDATGYRINTIGLYFNLWGPGTLVTVSS
VL: ELTQTPSSVEAAVGGTPTIKCQASQTIYSYLSWYQQKPGQPPKLLIYEASKLASGVPSRFSGSGSGTDYTLTISDLECADAATYYCQSYHGTASTEYNTFGGGTEVVVK

Key:
[1] = target: T1, human α11 expressed on CHO-K1 cells; assay: cell-based or functional assay
[2] = target: T2, α11β1 on human pulmonary myofibroblasts (human, UniProt Q9UKX5 23-1188; P05556 21-798); assay: flow cytometry on human pulmonary myofibroblasts (title: Myofibroblast Binding); MFI against Log [µg/ml]
T2 construct: whole, on cells; The cells are not transfected; also called HPF/MF
Method: (§1) Human Pulmonary Fibroblasts (ScienCell) were cultured in complete Fibroblast Growth Medium (ScienCell) until 80% confluent in T-150 flasks. Cells were washed and harvested using Accutase. Cells were seeded into T-150 flasks at 7,500 cells/cm² in complete FGF and cultured for 72 hours. Cells were then washed and starved in serum reduced medium for 24 hours. After starvation, cells were treated with TGFβ1 (R&D Systems) for 72 hours. Cells were harvested using Accutase and seeded in 96-well conical bottom plates. Cells were blocked with Heat Inactived Fetal Bovine Serum (Gibco) for 30 minutes at 4° C. Cells were then incubated with anti-al I antibodies at the doses described in each figure for 30 minutes at 4° C. A human anti-al I antibody (Creative BioLabs) was included as a positive control as well as the appropriate IgG isotype negative controls. Cells were washed twice and incubated with PE conjugated secondary antibodies specific to the IgG class of the anti-α11 antibodies being tested for 30 minutes at 4° C. Cells were washed twice and fixed in 1% PF A for 30 minutes. Cells were acquired on a FACS Verse […]. Data were analyzed by gating on single cells and determining the geometric Mean Fluorescence Intensity (gMFI) in the PE channel for each sample.
Target sequence in this assay (P05556 21-798, chain 2 of 2, one chain of several): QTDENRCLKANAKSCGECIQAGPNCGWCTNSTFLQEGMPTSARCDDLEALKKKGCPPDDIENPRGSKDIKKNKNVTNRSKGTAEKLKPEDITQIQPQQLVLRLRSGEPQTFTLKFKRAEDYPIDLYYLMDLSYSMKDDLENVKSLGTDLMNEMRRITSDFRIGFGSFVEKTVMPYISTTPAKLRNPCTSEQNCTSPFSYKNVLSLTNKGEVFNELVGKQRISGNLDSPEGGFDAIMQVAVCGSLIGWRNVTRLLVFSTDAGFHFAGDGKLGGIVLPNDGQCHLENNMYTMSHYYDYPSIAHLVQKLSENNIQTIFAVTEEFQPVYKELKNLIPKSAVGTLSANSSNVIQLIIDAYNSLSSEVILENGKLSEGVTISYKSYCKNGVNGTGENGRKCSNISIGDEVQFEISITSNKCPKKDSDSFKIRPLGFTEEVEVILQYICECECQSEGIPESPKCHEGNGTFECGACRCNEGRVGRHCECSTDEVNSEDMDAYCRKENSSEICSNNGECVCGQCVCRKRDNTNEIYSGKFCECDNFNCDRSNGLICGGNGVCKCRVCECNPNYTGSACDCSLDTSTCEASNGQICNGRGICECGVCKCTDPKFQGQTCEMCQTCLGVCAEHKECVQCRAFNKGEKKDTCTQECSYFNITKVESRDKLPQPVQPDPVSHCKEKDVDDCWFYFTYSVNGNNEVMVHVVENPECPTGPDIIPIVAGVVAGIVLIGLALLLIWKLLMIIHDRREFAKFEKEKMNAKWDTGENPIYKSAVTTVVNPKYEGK

[3] = target: T1, human α11 expressed on CHO-K1 cells; assay: flow cytometry on CHO cells expressing human α11 (CHO-α11β1 binding)
Method: (§2) 200,000 cells (wild-type CHO-K1 cells or CHO-K1 cells expressing human α11) were incubated with each antibody at desired concentrations in FACS buffer for 30 min at 4° C. Then, the cells were washed with FACS buffer and incubated with secondary antibody at 1:100 dilution for 30 minutes at 4° C. Cells were then washed and fixed with 1% PF A in PBS for 20 minutes at room temperature; washed again and read on a cytometer in FACS buffer.

[4] = target: T1, human α11 expressed on CHO-K1 cells; assay: flow cytometry on CHO-K1 cells expressing human α11 (title: CHO-hu α11 Binding); MFI against Log [µg/ml]
Method: as §2

recombinant human α11β1 = target: T3, recombinant human α11β1 (human, UniProt Q9UKX5 23-1141; P05556 21-728, limits assumed); assay: SPR (Biacore T200), HIS-tagged human α11β1 captured by anti-HIS, antibody injected, single cycle kinetics, 1:1 model
T3 construct: HIS-tagged heterodimer captured by anti-HIS antibody in SPR; also called HIS-tagged human α11β1; soluble human α11β1
Method: The affinity of antibodies for human α11β1 was measured by surface plasm on resonance assay (SPR). Affinity was measured at pH 7.6 and 25° C. with a Biacore T200 instrument. Anti-HIS antibody was immobilized on the SPR sensor surface using EDC/NHS covalent attachment. HIS-tagged human α11β1 was captured on the sensor surface and a single cycle kinetics assay was used. Increasing concentrations of test antibody were injected in series over the sensor-bound α11β1. Dissociation was monitored for 1000 seconds. A sensor surface with only anti-HIS antibody and a series of blank injections were used to double-reference subtract the data. A 1:1 Langmuir model was fit to the data to estimate the kinetic association and dissociation constants. The affinity (equilibrium dissociation constant) of the interaction was calculated by dividing the kinetic dissociation constant by the kinetic association constant. Between injection cycles α11β1 and bound antibody were removed with an injection of 10 mM glycine at pH 1.5.

[5] = target: T1, human α11 expressed on CHO-K1 cells; assay: cell-based or functional assay; remark: listed apart in the source
[6] = target: T2, α11β1 on human pulmonary myofibroblasts; assay: flow cytometry on TGFβ1-treated human pulmonary fibroblasts (myofibroblasts)
Method: as §1
Target sequence in this assay (P05556 21-798, one chain of several): as the sequence (P05556 21-798, chain 2 of 2, one chain of several) above

T3 sequence (P05556 21-728 limits assumed, chain 2 of 2, one chain of several): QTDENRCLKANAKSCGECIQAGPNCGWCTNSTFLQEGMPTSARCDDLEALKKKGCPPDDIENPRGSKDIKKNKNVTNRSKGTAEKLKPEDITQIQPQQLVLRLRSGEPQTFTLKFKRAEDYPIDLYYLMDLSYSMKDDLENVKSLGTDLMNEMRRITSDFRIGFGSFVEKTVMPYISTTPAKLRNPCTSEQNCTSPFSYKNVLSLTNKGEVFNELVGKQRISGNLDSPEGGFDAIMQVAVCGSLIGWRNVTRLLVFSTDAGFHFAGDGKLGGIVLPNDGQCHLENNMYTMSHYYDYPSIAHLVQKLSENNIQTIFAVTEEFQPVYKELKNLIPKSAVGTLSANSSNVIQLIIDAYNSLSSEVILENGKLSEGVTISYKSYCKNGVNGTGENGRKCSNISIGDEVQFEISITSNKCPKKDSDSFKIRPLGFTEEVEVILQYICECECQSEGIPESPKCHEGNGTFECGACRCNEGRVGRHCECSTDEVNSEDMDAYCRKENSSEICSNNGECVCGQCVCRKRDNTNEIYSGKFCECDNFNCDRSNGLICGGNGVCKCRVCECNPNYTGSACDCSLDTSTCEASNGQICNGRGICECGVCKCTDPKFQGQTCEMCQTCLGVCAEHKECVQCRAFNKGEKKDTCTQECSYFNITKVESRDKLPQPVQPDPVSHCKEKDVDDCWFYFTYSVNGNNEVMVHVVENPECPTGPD

| Binder | IC50 (read off the curve), inhibition of cell adhesion to type I collagen [1] | EC50 (read off the curve) [2] | EC50 [3] | EC50 (read off the curve) [4] | Kd (recombinant human α11β1) | CHO-hu α11 adhesion inhibition (IC50) [5] | EC50 [6] |
| --- | --- | --- | --- | --- | --- | --- | --- |
| B1 | ~0.6 µg/mL | ~0.4 µg/mL | – | – | – | – | – |
| B2 | ~0.5 µg/mL | ~0.5 µg/mL | 3.5 nM | ~0.4 µg/mL | 0.24 nM | 3.3 nM | 3.5 nM |
| B3 | ~0.6 µg/mL | ~0.6 µg/mL | – | ~0.8 µg/mL | – | – | – |
| B4 | ~0.5 µg/mL | ~0.4 µg/mL | – | – | – | – | – |
| B5 | – | – | 3.4 nM | – | 1.3 nM | 9.4 nM | 3.35 nM |
| B6 | – | – | 0.3 nM | – | 0.048 nM | 0.39 nM | 0.35 nM |

From patent US20260184794A1 (MOMENTA PHARMACEUTICALS, published 2026)
